Data set [1] concerns aP probe: FGF21-based peptide with D-alanine at P2 (VaPSQG).
Data set [2] concerns GP probe: fluorescence-quenched peptide of the region flanking the C-terminal human FGF21 cleavage site (VGPSQG).

PREP in mouse plasma, sequence (chain, as listed by the source): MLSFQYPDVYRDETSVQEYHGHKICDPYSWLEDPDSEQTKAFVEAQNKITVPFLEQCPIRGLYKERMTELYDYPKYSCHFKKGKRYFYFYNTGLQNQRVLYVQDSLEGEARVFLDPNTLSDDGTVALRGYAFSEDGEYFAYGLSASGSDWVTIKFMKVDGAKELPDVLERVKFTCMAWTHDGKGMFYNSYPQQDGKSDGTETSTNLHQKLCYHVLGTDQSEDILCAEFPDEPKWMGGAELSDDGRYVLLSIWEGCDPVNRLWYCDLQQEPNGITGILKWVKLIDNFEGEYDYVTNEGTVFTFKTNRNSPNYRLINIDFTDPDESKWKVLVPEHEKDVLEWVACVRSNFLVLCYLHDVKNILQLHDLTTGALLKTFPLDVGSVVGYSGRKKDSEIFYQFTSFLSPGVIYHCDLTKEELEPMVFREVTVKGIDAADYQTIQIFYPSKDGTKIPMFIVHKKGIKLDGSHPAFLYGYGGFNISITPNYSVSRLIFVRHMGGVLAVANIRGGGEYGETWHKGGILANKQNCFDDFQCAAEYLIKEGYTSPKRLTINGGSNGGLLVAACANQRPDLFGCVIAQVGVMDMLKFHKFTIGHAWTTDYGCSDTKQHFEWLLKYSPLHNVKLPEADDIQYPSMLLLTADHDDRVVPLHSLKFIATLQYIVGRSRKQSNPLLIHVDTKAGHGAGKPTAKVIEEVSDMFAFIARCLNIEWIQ

For FAP in human serum, the “cleavage of the aP probe in immunodepleted human serum” value in data set [1] was “signal is lost after FAP immunodepletion from human serum, but not in control IgG-immunodepleted serum”.
Consider Human DPPII/DPP7 (3438-SE), for which the “cleavage of fluorescence-quenched peptide (FRET-quench assay), peptidase at 2.5 µg/ml” value in data set [1] is “did not exhibit an ability to cleave the aP probe”.
Consider PREP in mouse plasma, for which the “cleavage of the GP probe in mouse plasma, with cpd60 and KYP-2047” value in data set [2] was “PREP has a smaller but significant contribution”.

The values are drawn from patent publication US20200055896.
